Data: US20250236667A1, “ANTIBODIES TO MUTANT CALRETICULIN AND USES THEREOF” (CENTRAL ADELAIDE LOCAL HEALTH NETWORK INC, priority 2021, published 2025)

Tests used:
Format in all cases: cell-based, human
[1] = test system: primary CD34+ cells from patients with CALR mutant myelofibrosis; assay: TPO-independent megakaryocyte differentiation in liquid culture
Description: (§1) Patient samples were collected with informed consent from the South Australian Cancer Research Biobank (SACRB: Adelaide, Australia). Primary CD34+ stem/progenitor cells from peripheral blood samples from patients with JAK2^V617F or CALR mutant myelofibrosis were purified by flow cytometry using CD34-APC antibody, anti-human CD45RA Brilliant Violet 605, anti-CD90 FITC, anti-human CD123-PE, anti-human CD38 PE-Cy7, or with CD34-APC antibody, anti-human CD3 FITC, anti-human CD19-PE (clone H1B19) and anti-human CD14 PE-Cy7.
(§2) For megakaryocyte differentiation assays, CD34+ cells derived from cord blood or from patient peripheral blood mononuclear fractions were plated in Megacult (MegaCult™-C Collagen and Medium with Lipids) with added IL-3 and IL-6 (10 ng/ml) in the presence or absence of 50 ng/mL TPO. Cells were plated at an initial density of 1800 cells/well and cultured for 12 days at 37° C. and 5% CO2. Primary PMF CD34+ cells were cultured in StemCell Pro supplemented with human recombinant SCF (25 ng/mL), IL-6 and IL-9 (10 ng/ml) to allow differentiation into megakaryocytes. CD34+cord blood cells were cultured in 50 ng/mL SCF, 50 ng/ml TPO, 20 ng/ml IL-6 and 20 ng/ml IL-9. Both IgG and 4D7 were added at 20 μg/mL. All cytokines are from Preprotech. Culture media was replenished every 3 days and cells were assessed for megakaryocyte differentiation on day 12 using anti-human CD41/61 PE-Cy7 (Clone A2A9/6) and CountBright beads (Thermo Fisher) to enumerate cell numbers. CD34+obtained from UCB were plated in MethoCult containing cytokines (H4434). Cells were seeded at approximately 100 cells per well and were cultured in the presence of 20 μg/mL 4D7 or control IgG antibody and scored for colony and blast forming units at 12-14 days.

[2] = test system: primary CD34+ cells from JAK2 V617F myelofibrosis samples; assay: as above; settings: 3 out of 3 JAK2 V617F myelofibrosis samples
Description: as §1, §2

[3] = test system: wild type TF-1 TpoR expressing cells; assay: Flow cytometry of 4D7 binding to the cell surface, wild type cells; settings: PE-conjugated 4D7; wild type TF-1 TpoR cells
[4] = test system: healthy cord blood CD34+ cells; assay: cells
Procedure: Umbilical cord blood (UCB) was collected with written consent from full-term deliveries at the Women's Health Unit, Lyell McEwin Hospital (Adelaide, South Australia) or the Department of Obstetrics and Gynecology, Medical University of Graz (Austria) with institutional review board approval (IRB approval: 31-322 ex 18/19; HREC/20/WCHN/65). Samples were processed using a Ficoll-Paque (GE Healthcare) density gradient to isolate mononuclear cells (800×g, room temperature, 30 minutes, deceleration off), followed by red cell lysis (ammonium-chloride-potassium lysing buffer) to remove remaining red blood cells. CD34 enrichment was performed by magnetic cell separation using CD34 Microbead kit (Miltenyi Biotech). Alternatively, purified CD34+ cells from cord-blood were purchased from Lonza. CD34+ cells with a purity above 90% were either cryopreserved or directly cultured in serum-free stem cell retention media (StemSpan SFEMII, Stemcell Technologies, Vancouver, BC, Canada) supplemented with human recombinant SCF, TPO, FLT3, IL-6 (all 20 ng/mL), UM729 (1.75 uM) and StemReginin 1 (SR1, 300 nM). All cytokines and SRI were purchased from PeproTech (Rocky Hill, NJ, USA) whereas UM729 was purchased from Stemcell Technologies.
as §2, with “Primary PMF CD34+ cells were cultured in StemCell Pro supplemented with human recombinant SCF (25 ng/mL), IL-6 and IL-9 (10 ng/ml) to allow differentiation into megakaryocytes. CD34+cord blood cells were cultured in 50 ng/mL SCF, 50 ng/ml TPO, 20 ng/ml IL-6 and 20 ng/ml IL-9. Both IgG and 4D7 were added at 20 μg/mL. All cytokines are from Preprotech.” left out, “CD34+obtained from UCB were plated in MethoCult containing cytokines (H4434).” left out

B1: 4D7: rat monoclonal IgG2a antibody against the mutant CALR neoepitope; VH SEQ ID NO: 5, VL SEQ ID NO: 7 (antibody, listed as Rattus rattus, V domains shown)
VH: QVQLQQSGAELAKPGSSVKISCKASGYTFTNYDMSWIKQRPGQALEWIGAINPGNGVTDYNEKFRGKATLTVDKSSSTAFMQLSSLTPEDTAVYHCAREYRDNYGYFDYWGQGVMVTVSS
VL: DIVLTQTPVSLSVTLGDQASISCRSSQSLEYSDGYTYLDWFLQKPGQSPQLLIYEVSSRFSGVPDRFIGRGSGTDFTLKISRVEPEDLGVYYCFQATHDPFTFGSGTKLEIK
mean decrease of CD41+ cells across CALR mutant samples ([1]; 20 μg/mL, day 12, normalised to IgG): 55%
inhibition of CD41+ megakaryocytes compared to IgG control ([1]; additional samples in 2 independent patients (Graz), including type 2 CALR (5 base pair insertion)): evidence of inhibition
inhibition of TPO-independent growth of CD41+CD61+ megakaryocyte progenitors ([1]; four out of 5 mutant CALR MF patient samples, 20 μg/mL, 12 days, vs IgG): at least 50%
inhibition of CD41+CD61+ megakaryocyte progenitors ([1]; patient sample with a 34 base pair deletion): weaker inhibition
inhibition of CD41+CD61+ megakaryocyte progenitors [2]: No significant inhibition
binding to the cell surface [3]: but not wild type TF-1 TpoR expressing cells
effect on normal hematopoiesis [4]: no effect
